The values below come from article doi:10.1101/2024.10.01.615909 (bioRxiv, 2024).

For the assay, the target named is T1, S-tag-KLCR1 (Arabidopsis thaliana, UniProt O81629 1-609).
T1 sequence: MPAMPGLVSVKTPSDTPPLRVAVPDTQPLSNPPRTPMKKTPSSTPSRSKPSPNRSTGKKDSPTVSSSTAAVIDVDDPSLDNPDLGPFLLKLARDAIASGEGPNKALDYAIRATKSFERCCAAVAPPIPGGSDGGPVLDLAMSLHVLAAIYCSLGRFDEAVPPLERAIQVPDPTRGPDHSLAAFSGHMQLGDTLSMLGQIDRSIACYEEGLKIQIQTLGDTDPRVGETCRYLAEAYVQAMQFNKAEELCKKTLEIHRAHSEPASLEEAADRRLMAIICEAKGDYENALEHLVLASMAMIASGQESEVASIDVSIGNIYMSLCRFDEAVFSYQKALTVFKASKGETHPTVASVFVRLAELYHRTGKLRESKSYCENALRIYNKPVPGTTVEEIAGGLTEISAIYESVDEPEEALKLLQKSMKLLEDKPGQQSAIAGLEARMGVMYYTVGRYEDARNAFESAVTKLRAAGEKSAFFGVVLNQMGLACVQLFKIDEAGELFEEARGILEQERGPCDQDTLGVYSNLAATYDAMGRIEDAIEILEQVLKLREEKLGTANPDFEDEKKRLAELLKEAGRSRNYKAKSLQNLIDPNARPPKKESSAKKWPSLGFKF
Put plainly: co-sedimentation.

B1: His8-SUMO (HS)-IQD2 (natural protein)
chain: MGKKAKWFSSVKKAFSPDSKKSKQKLAEGQNGVISNPPVVDNVRQSSSSPPPALAPREVRVAEVIVERNRDLSPPSTADAVNVTATDVPVVPSSSAPGVVRRATPTRFAGKSNEEAAAILIQTIFRGYLARRALRAMRGLVRLKLLMEGSVVKRQAANTLKCMQTLSRVQSQIRARRIRMSEENQARQKQLLQKHAKELAGLKNGDNWNDSIQSKEKVEANLLSKYEATMRRERALAYSYSHQQNWKNNSKSGNPMFMDPSNPTWGWSWLERWMAGRPLESSEKEQSNSNNDNAASVKGSINRNEAAKSLTRNGSTQPNTPSSARGTPRNKNSFFSPPTPSRLNQSSRKSNDDDSKSTISVLSERNRRHSIAGSSVRDDESLAGSPALPSYMVPTKSARARLKPQSPLGGTTQENEGFTDKASAKKRLSYPTSPALPKPRRFSAPPKVESGGVTVTNGAGS
As for B1, the binding result is “binds”.
